{"source": "paper PMC10671530", "about": "“Linking New Alleles at the Oscillator Loci to Flowering and Expansion of Asian Rice”", "binders": {"B1": {"name": "OsPRR1-p3 (EE probe) (dsDNA)", "DNA 1": "CATCTGGCTTAACCACGCCCGGCTCTC", "DNA 2": "GAGAGCCGGGCGTGGTTAAGCCAGATG"}, "B2": {"name": "OsPRR1-p2 (EE probe) (dsDNA)", "DNA 1": "GTTTCGTTTATTACACCGCCCCGG", "DNA 2": "CCGGGGCGGTGTAATAAACGAAAC"}, "B3": {"name": "OsPRR1-p1 (EE probe) (dsDNA)", "DNA 1": "GTAGGGGGAGGAAAATATCCTGTGCCAGTAG", "DNA 2": "CTACTGGCACAGGATATTTTCCTCCCCCTAC"}, "B4": {"name": "probe 9 (OsPRR1_a, 12-nt deletion) (dsDNA)", "DNA 1": "CCAACGCCGCCGCCGC", "DNA 2": "GCGGCGGCGGCGTTGG"}}}
{"target": "OsCCA1 DNA-binding (R/MYB) domain (Oryza sativa (cDNA of Heidao), UniProt A0A0P0XBU0 1-138)", "sequence (A0A0P0XBU0 1-138)": "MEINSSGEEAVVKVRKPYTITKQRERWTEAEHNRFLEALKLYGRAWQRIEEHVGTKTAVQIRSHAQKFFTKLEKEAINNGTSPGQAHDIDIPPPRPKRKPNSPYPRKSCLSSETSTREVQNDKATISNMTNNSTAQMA", "experiment": "EMSA; EMSA: 10 uL with 2 uL 5x binding buffer (Invitrogen), 1.3 ug protein, 20 pmol probe, 23 C, 20 min; 10% native PAGE, 100 V about 70 min; gel stained for DNA and", "conditions": "protein: recombinant; (pCold vector, Ni Sepharose)"}
{"binder": "B1", "binding result": "binds"}
{"binder": "B2", "binding result": "binds"}
{"binder": "B3", "binding result": "binds"}
{"binder": "B4", "binding result": "no binding"}
